Ends that are not written are not given here.
The binders below were run against GLP-1 receptor (assay: cell-based or functional assay).
With HAEGTFTSDVSSYLEGQAAKEFIAWLVKGRPSSGAPPPS-NH2 [HAEGTFTSDVSSYLEGQAAKEFIAWLVKGRPSSGAPPPS-NH2] the “In Vitro Activity (% of Val^8-GLP-1(7-37)OH)” value was 3.3 % of Val^8-GLP-1(7-37)OH. In the case of HGEGTFTSDLSKQMEGQAAKEFIEWLKNGGP-NH2 [HGEGTFTSDLSKQMEGQAAKEFIEWLKNGGP-NH2], the “In Vitro Activity (% of Val^8-GLP-1(7-37)OH)” value is reported as 1.44 % of Val^8-GLP-1(7-37)OH. HVEGTFTSDVSSYLEEEAVRLFIAWLVKGRG was tested, and the “In Vitro Activity (% of Val^8-GLP-1(7-37)OH)” value was 1.47 % of Val^8-GLP-1(7-37)OH. HGEGTFTSDLSKQMEEEAAKEFIEWLKNGGP-NH2 [HGEGTFTSDLSKQMEEEAAKEFIEWLKNGGP-NH2] was tested, and the “In Vitro Activity (% of Val^8-GLP-1(7-37)OH)” value was 2.8 % of Val^8-GLP-1(7-37)OH. HGEGTFTSDVSSYLEEEAVRLFIEWLKNGGP-NH2 [HGEGTFTSDVSSYLEEEAVRLFIEWLKNGGP-NH2] was tested, and the “In Vitro Activity (% of Val^8-GLP-1(7-37)OH)” value was 5.4 % of Val^8-GLP-1(7-37)OH. HAEGTFTSDVSKQLEEEAAKEFIAWLVKGRG was tested, and the “In Vitro Activity (% of Val^8-GLP-1(7-37)OH)” value was 2.15 % of Val^8-GLP-1(7-37)OH. For HVEGTFTSDLSKQMEGQAAKEFIAWLVKGRG, the “In Vitro Activity (% of Val^8-GLP-1(7-37)OH)” value was 0.11 % of Val^8-GLP-1(7-37)OH. For HVEGTFTSDVSSYLEGQAAKEFIEWLKNGGP-NH2 [HVEGTFTSDVSSYLEGQAAKEFIEWLKNGGP-NH2], the “In Vitro Activity (% of Val^8-GLP-1(7-37)OH)” value was 2.36 % of Val^8-GLP-1(7-37)OH. In the case of HVEGTFTSDLSKQMEEEAVRLFIAWLVKGRG, the “In Vitro Activity (% of Val^8-GLP-1(7-37)OH)” value is reported as 2.86 % of Val^8-GLP-1(7-37)OH. For HGEGTFTSDLSKQMEEEAVRLFIAWLVKGRG, the “In Vitro Activity (% of Val^8-GLP-1(7-37)OH)” value was 3.25 % of Val^8-GLP-1(7-37)OH. In the case of HGEGTFTSDLSSYLEEEAVRLFIEWLKNGGP-NH2 [HGEGTFTSDLSSYLEEEAVRLFIEWLKNGGP-NH2], the “In Vitro Activity (% of Val^8-GLP-1(7-37)OH)” value is reported as 5.07 % of Val^8-GLP-1(7-37)OH. HVEGTFTSDVSSYLEGQAAKEFIAWLVKGRG [Val^8-GLP-1(7-37)OH] was tested, and the “In Vitro Activity (% of Val^8-GLP-1(7-37)OH)” value was 1 % of Val^8-GLP-1(7-37)OH.

Biological target: GLP-1 receptor
Assay: cell-based or functional assay
Remark: another data set of the same source
For HVEGTYTSDVSSYLEGQAAKEFIAWLVKGRG [Val^8-Tyr^12-GLP-1(7-37)OH], the “GLP-1 Receptor Activation” value was 0.81 fold of GLP-1(7-37)OH. HVEGTFTSDYSSYLEGQAAKEFIAWLVKGRG [Val^8-Tyr^16-GLP-1(7-37)OH] was tested, and the “GLP-1 Receptor Activation” value was 1.18 fold of GLP-1(7-37)OH.

Biological target: GLP-1 receptor
Assay: cell-based or functional assay
Remark: another data set of the same source
With HVEGTFTSDVSKYLEEQAAKEFIAWLVKGRG [Val^8-Lys^18-Glu^22-GLP-1(7-37)OH] the “GLP-1 Receptor Activation” value was 1.18 fold of GLP-1(7-37)OH. In the case of HVEGTFTSDVSSFLEEQAAKEFIAWLVKGRG [Val^8-Phe^19-Glu^22-GLP-1(7-37)OH], the “GLP-1 Receptor Activation” value is reported as 0.7 fold of GLP-1(7-37)OH. For HVEGTFTSDISSYLEEQAAKEFIAWLVKGRG [Val^8-Ile^16-Glu^22-GLP-1(7-37)OH], the “GLP-1 Receptor Activation” value was 1.55 fold of GLP-1(7-37)OH. In the case of HVEGTFTSDYSSFLEGQAAKEFIAWLVKGRG [Val^8-Tyr^16-Phe^19-GLP-1(7-37)OH], the “GLP-1 Receptor Activation” value is reported as 1.32 fold of GLP-1(7-37)OH. For HVEGTFTSDVSIYLEEQAAKEFIAWLVKGRG [Val^8-Ile^18-Glu^22-GLP-1(7-37)OH], the “GLP-1 Receptor Activation” value was 1.88 fold of GLP-1(7-37)OH. In the case of HVEGTYTSDVSSYLEGQAAKEFIAWLVKGRG [Val^8-Tyr^12-GLP-1(7-37)OH], the “GLP-1 Receptor Activation” value is reported as 0.8 fold of GLP-1(7-37)OH. HVEGTFTSDVSFYLEEQAAKEFIAWLVKGRG [Val^8-Phe^18-Glu^22-GLP-1(7-37)OH] was tested, and the “GLP-1 Receptor Activation” value was 0.94 fold of GLP-1(7-37)OH. HVEGTFTSDLSSYLEEQAAKEFIAWLVKGRG [Val^8-Leu^16-Glu^22-GLP-1(7-37)OH] was tested, and the “GLP-1 Receptor Activation” value was 2.02 fold of GLP-1(7-37)OH. With HVEGTFTSDVSSWLEEQAAKEFIAWLVKGRG [Val^8-Trp^19-Glu^22-GLP-1(7-37)OH] the “GLP-1 Receptor Activation” value was 1.5 fold of GLP-1(7-37)OH. For HVEGTFTSDFSSYLEEQAAKEFIAWLVKGRG [Val^8-Phe^16-Glu^22-GLP-1(7-37)OH], the “GLP-1 Receptor Activation” value was 1.08 fold of GLP-1(7-37)OH. In the case of HVEGTFTSDYSSYLEGQAAKEFIAWLVKGRG [Val^8-Tyr^16-GLP-1(7-37)OH], the “GLP-1 Receptor Activation” value is reported as 1.18 fold of GLP-1(7-37)OH.
